The values below come from US20070141139A1, “COMPOSITION FOR INTESTINAL DELIVERY” (priority 2000, published 2007).

A value given as a limit tells only on which side of the number the result lay.

For data set [1] the following is noted: in vivo; cited from earlier work.
The subject of the next data set is coho salmon. To be noted: orally intubated with rbGH and antacid, 7-week trial; cited from earlier work.
The conditions of data set [2]: cited from earlier work.
For data set [3] the following is noted: in vivo; cited from earlier work. The source holds these as a separate data set.
The conditions of data set [4]: in vivo; cited from earlier work. The source holds these as a separate data set.
Data set [5] has as its system proteolytic enzymes, enzyme extract of proximal small intestine. Put plainly: In vitro proteolytic enzyme inhibition by feed ingredients (casein hydrolysis). The data set is classed as biochemical, rainbow trout. The settings on record: increasing level of inhibitor inclusion; FIGS. 5-12. The method, then: • 1. Centrifuge Sorvall model • 2. Bench-top blender • 3. Dissecting material (scissors) • 4. Centrifuge bottle • 5. Disposable cuvettes for spectrophotometer • 6. Microcentrifuge tubes 1,5 ml • 7. Spectrophotometer • 8. Vortexer • 9. Microplates reader from Biorad • 10. 50 mM Tris-HCl pH=7.5 • 11. Commassie blue staining solution • 12. BSA (1 mg\ml) standard solution • 13. TCA 20% • 14. Rainbow trouts pancreatic and duodenal tissues • 15. 0.5% casein in 50 mM Tris-HCl pH=9 • 16. 50 mM Tris-HCl+CaCl2 10 mM pH=7.5 Enzyme Extract • 1. Rainbow trout were weighed and sacrificed. • 2. Dissection was performed to remove the proximal small intestine from the fish. • 3. After weighing, the tissues were homogenised in 50 mM Tris-HCl ph=7.5 (1:10 w\v). • 4. Centrifuge at 16000×g for 30 min at 4° C. • 5. Keep the supernatant. Aliquot and store them at −20 C for further use. • 6. Perform Commassie assay to measure the amount of protein present in the enzyme extract. Commassie Blue Stain Protocol • 1. Weigh 160 mg of BSA in 10 ml of […] Tris-HCl pH=7.5. • 2. […] Read at 655 nm with the microplate reader from Biorad. […] Centrifuge at 12000×g for 5 min and read at 280 nm. […] Centrifuge at 12000×g for 5 min and read at 280 nm. […] Centrifuge at 12000×g for 5 min and read at 280 nm. […] Centrifuge at 12000×g for 5 min and read at 280 nm. […] Centrifuge at 12000×g for 5 min and read at 280 nm. […]

In another data set the test system is salmonids. The settings on record: in vivo; cited from earlier work.
In the next data set the test system is rainbow trout. Put plainly: Growth of rainbow trout after intraperitoneal injection of recombinant bST. The data set is classed as in vivo, Oncorhynchus mykiss. The settings on record: IP, 20 μg bST/g live body weight weekly for 6 weeks; FIG. 4. On the procedure:
Intraperitoneal (IP) administration dose per fish weekly was 20 μg bST/g live body weight for 6 weeks.

Consider `CC[C@@]1([C@@H]2O[C@@H]([C@H]3O[C@@](O)(CO)[C@H](C)C[C@@H]3C)C[C@@H]2C)CC[C@H]([C@]2(C)CC[C@]3(C[C@H](O)[C@@H](C)[C@@H]([C@@H](C)[C@@H](OC)[C@H](C)C(=O)O)O3)O2)O1` [monensin], for which the “effect upon HRP absorption” value in data set [1] is “no effect upon HRP absorption”.
For the molecule `CCCCCCCCC(=O)N(C)C[C@H](O)[C@@H](O)[C@H](O)[C@H](O)CO` [Mega-9, reference compound], in the data set on coho salmon, the “growth performance compared to fish dosed with GH alone” value is “significantly increases growth performance”. For the same molecule, the “plasma HRP presence compared to controls” value in data set [2] (co-delivery with HRP) is reported as “almost double”.
Regarding “human growth hormone: human growth hormone given with a suspension of sodium salicylate in oil”, in data set [3], the “bioavailability (with reference to intravenous)” value was 10-20%.
Take “horseradish peroxidase: tracer protein, horseradish peroxidase type 1 (Sigma)”: the “time to transport to the circulation after oral administration” value in data set [4] is given as at most 1 h.

B1: lyophylized ovalbumin: protease inhibitor component of the Oralject™ cocktail (protein, UniProt P01012 2-386, looked up)
Ovalbumin: GSIGAASMEFCFDVFKELKVHHANENIFYCPIAIMSALAMVYLGAKDSTRTQINKVVRFDKLPGFGDSIEAQCGTSVNVHSSLRDILNQITKPNDVYSFSLASRLYAEERYPILPEYLQCVKELYRGGLEPINFQTAADQARELINSWVESQTNGIIRNVLQPSSVDSQTAMVLVNAIVFKGLWEKAFKDEDTQAMPFRVTEQESKPVQMMYQIGLFRVASMASEKMKILELPFASGTMSMLVLLPDEVSGLEQLESIINFEKLTEWTSSNVMEERKIKVYLPRMKMEEKYNLTSVLMAMGITDVFSSSANLSGISSAESLKISQAVHAAHAEINEAGREVVGSAEAGVDAASVSEEFRADHPFLFCIKHIATNAVLFFGRCVSP
modifications: lyophilized
In the case of B1, the “in vitro proteolytic enzyme inhibition” value in data set [5] is listed as “affect to differing degrees the inhibition”.

B2: spray-dried ovalbumin: protease inhibitor component of the Oralject™ cocktail (protein, UniProt P01012 2-386, looked up)
Ovalbumin: GSIGAASMEFCFDVFKELKVHHANENIFYCPIAIMSALAMVYLGAKDSTRTQINKVVRFDKLPGFGDSIEAQCGTSVNVHSSLRDILNQITKPNDVYSFSLASRLYAEERYPILPEYLQCVKELYRGGLEPINFQTAADQARELINSWVESQTNGIIRNVLQPSSVDSQTAMVLVNAIVFKGLWEKAFKDEDTQAMPFRVTEQESKPVQMMYQIGLFRVASMASEKMKILELPFASGTMSMLVLLPDEVSGLEQLESIINFEKLTEWTSSNVMEERKIKVYLPRMKMEEKYNLTSVLMAMGITDVFSSSANLSGISSAESLKISQAVHAAHAEINEAGREVVGSAEAGVDAASVSEEFRADHPFLFCIKHIATNAVLFFGRCVSP
modifications: spray-dried
Consider B2, for which the “in vitro proteolytic enzyme inhibition” value in data set [5] was “affect to differing degrees the inhibition”.

B3: bovine GH (bGH): bovine growth hormone (protein, UniProt P01246 27-217, looked up)
Somatotropin: AFPAMSLSGLFANAVLRAQHLHQLAADTFKEFERTYIPEGQRYSIQNTQVAFCFSETIPAPTGKNEAQQKSDLELLRISLLLIQSWLGPLQFLSRVFTNSLVFGTSDRVYEKLKDLEEGILALMRELEDGTPRAGQILKQTYDKFDTNMRSDDALLKNYGLLSCFRKDLHKTETYLRVMKCRRFGEASCAF
As to B3, in the data set on salmonids, the “increase in growth rate” value is listed as “two to three-fold increase in growth rate”.

B4: recombinant bST: recombinant bovine somatotropin (Monsanto Co.) (protein, UniProt P01246 27-217, looked up)
Somatotropin: AFPAMSLSGLFANAVLRAQHLHQLAADTFKEFERTYIPEGQRYSIQNTQVAFCFSETIPAPTGKNEAQQKSDLELLRISLLLIQSWLGPLQFLSRVFTNSLVFGTSDRVYEKLKDLEEGILALMRELEDGTPRAGQILKQTYDKFDTNMRSDDALLKNYGLLSCFRKDLHKTETYLRVMKCRRFGEASCAF
With B4, the body weight gain result in the data set on rainbow trout is recorded as “significantly induces increased body weight gain”.

B5: soya bean trypsin inhibitor: enzyme inhibitor co-delivered with HRP to rainbow trout (protein, UniProt P01070 25-205, looked up)
Trypsin inhibitor A: DFVLDNEGNPLENGGTYYILSDITAFGGIRAAPTGNERCPLTVVQSRNELDKGIGTIISSPYRIRFIAEGHPLSLKFDSFAVIMLCVGIPTEWSVVEDLPEGPAVKIGENKDAMDGWFRLERVSDDEFNNYKLVFCPQQAEDDKCGDIGISIDHDDGTRRLVVSKNKPLVVQFQKLDKESL
In the case of B5, the “oral absorption of HRP” value in data set [2] (in vivo, po) is “increased”.
